Test results: PMC5146963, “The mechanism of a formaldehyde-sensing transcriptional regulator” (Scientific Reports, 2016)

B1: Escherichia coli FrmR (EcFrmR) (natural protein, Escherichia coli K-12, UniProt P0AAP3 2-91, looked up)
chain: PSTPEEKKKVLTRVRRIRGQIDALERSLEGDAECRAILQQIAAVRGAANGLMAEVLESHIRETFDRNDCYSREVSQSVDDTIELVRAYLK
notes: FrmR, transcriptional repressor of the frmRAB operon, E. coli K-12; last residue Lys91; frmR amplified from E. coli K12 genomic DNA and ligated into pET22b at NdeI and NcoI; no tag is mentioned and the measured mass fits the untagged protein without Met1; source: E. coli expression strains (JRG6782, 6783 and 6784), frmR in pET22b, purified (Heparin-HP, HiLoad Superdex 200)
B2: EcFrmR(P2A) (natural protein, Escherichia coli K-12, UniProt P0AAP3 2-91, looked up)
chain: ASTPEEKKKVLTRVRRIRGQIDALERSLEGDAECRAILQQIAAVRGAANGLMAEVLESHIRETFDRNDCYSREVSQSVDDTIELVRAYLK
notes: FrmR, E. coli K-12, with P2A; Mutation made by overlap PCR or Quikchange; also called P2A variant; source: E. coli expression strains (JRG6782, 6783 and 6784), purified (Heparin-HP, HiLoad Superdex 200)
B3: EcFrmR(C35A) (natural protein, Escherichia coli K-12, UniProt P0AAP3 2-91, looked up)
chain: PSTPEEKKKVLTRVRRIRGQIDALERSLEGDAEARAILQQIAAVRGAANGLMAEVLESHIRETFDRNDCYSREVSQSVDDTIELVRAYLK
notes: FrmR, E. coli K-12, with C35A; Mutation made by overlap PCR or Quikchange; also called C35A variant; source: E. coli expression strains (JRG6782, 6783 and 6784), purified (Heparin-HP, HiLoad Superdex 200)

Biological target: the molecule itself
Experiment: SEC; calibrated size exclusion chromatography column; elution volume compared with standards

Stoichiometry N, 4:
B1
B2
B3
